Assay results from patent US20230002480A1.

Columns and labels:
Test in all cases: cell-based or functional assay
[1] = target: HIV-1 Env of pseudovirus HIV-001428-2.42 (HIV-1)
[2] = target: HIV-1 Env of pseudovirus HIV-16055-2.3 (HIV-1)
[3] = target: HIV-1 Env of pseudovirus CNE58 (HIV-1)
[4] = target: HIV-1 Env of pseudovirus X1193_c1 (HIV-1)
[5] = target: HIV-1 Env of pseudovirus 6480.v4.c25 (HIV-1)
[6] = target: HIV-1 Env of pseudovirus CNE30 (HIV-1)
[7] = target: HIV-1 Env of pseudovirus CAP45.2.00.G3 (HIV-1)
[8] = target: HIV-1 Env of pseudovirus 3817.v2.c59 (HIV-1)
[9] = target: HIV-1 Env of pseudovirus 3103.v3.c10 (HIV-1)
[10] = target: HIV-1 Env of pseudovirus 6240_08_TA5_4622 (HIV-1)
[11] = target: HIV-1 Env of pseudovirus 6244_13_B5_4576 (HIV-1)
[12] = target: HIV-1 Env of pseudovirus 0260.v5.c36 (HIV-1)
[13] = target: HIV-1 Env of pseudovirus 211-9 (HIV-1)
[14] = target: HIV-1 Env of pseudovirus WITO4160.33 (HIV-1)
[15] = target: HIV-1 Env of pseudovirus BF1266.431a (HIV-1)
[16] = target: HIV-1 Env of pseudovirus 246F C1G (HIV-1)
[17] = target: HIV-1 Env of pseudovirus Ce1172_H1 (HIV-1)
[18] = target: HIV-1 Env of pseudovirus 620345.c01 (HIV-1)
[19] = target: HIV-1 Env of pseudovirus 191955_A11 (HIV-1)
[20] = target: HIV-1 Env of pseudovirus X2131_C1_B5 (HIV-1)
[21] = target: HIV-1 Env of pseudovirus 0815.v3.c3 (HIV-1)
[22] = target: HIV-1 Env of pseudovirus 6535.3 (HIV-1)
[23] = target: HIV-1 Env of pseudovirus SC422661.8 (HIV-1)
[24] = target: HIV-1 Env of pseudovirus T255-34 (HIV-1)
[25] = target: HIV-1 Env of pseudovirus CNE8 (HIV-1)
[26] = target: HIV-1 Env of pseudovirus ZM109F.PB4 (HIV-1)
[27] = target: HIV-1 Env of pseudovirus CAAN5342.A2 (HIV-1)
[28] = target: HIV-1 Env of pseudovirus Q769.d22 (HIV-1)
[29] = target: HIV-1 Env of pseudovirus Ce0393_C3 (HIV-1)
[30] = target: HIV-1 Env of pseudovirus 1394C9G1(Rev-) (HIV-1)
[31] = target: HIV-1 Env of pseudovirus RHPA4259.7 (HIV-1)
[32] = target: HIV-1 Env of pseudovirus THRO4156.18 (HIV-1)
[33] = target: HIV-1 Env of pseudovirus 9004SS_A3_4 (HIV-1)
[34] = target: HIV-1 Env of pseudovirus C3347.c11 (HIV-1)
[35] = target: HIV-1 Env of pseudovirus BJOX025000.01.1 (HIV-1)
[36] = target: HIV-1 Env of pseudovirus CAP210.2.00.E8 (HIV-1)

PGT145 (antibody)
IC50 [1]: 0.001 µg/mL
IC80 [1]: 0.083 µg/mL
IC50 [2]: 0.003 µg/mL
IC80 [2]: 0.051 µg/mL
IC50 [3]: 0.183 µg/mL
IC80 [3]: 7.41 µg/mL
IC50, titer in TZM.bl cells [4]: 0.013 µg/mL
IC80, titer in TZM.bl cells [4]: 0.091 µg/mL
IC50, titer in TZM.bl cells [5]: > 50 µg/mL
IC80, titer in TZM.bl cells [5]: > 50 µg/mL
IC50 [6]: > 50 µg/mL
IC80 [6]: > 50 µg/mL
IC50 [7]: 0.001 µg/mL
IC80 [7]: 0.007 µg/mL
IC50, titer in TZM.bl cells [8]: > 50 µg/mL
IC80, titer in TZM.bl cells [8]: > 50 µg/mL
IC50, titer in TZM.bl cells [9]: 0.043 µg/mL
IC80, titer in TZM.bl cells [9]: 0.164 µg/mL
IC50 [10]: > 50 µg/mL
IC80 [10]: > 50 µg/mL
IC50 [11]: 7.27 µg/mL
IC80 [11]: 44.5 µg/mL
IC50 [12]: > 50 µg/mL
IC80 [12]: > 50 µg/mL
IC50, titer in TZM.bl cells [13]: 0.129 µg/mL
IC80, titer in TZM.bl cells [13]: 0.923 µg/mL
IC50 [14]: < 0.001 µg/mL
IC80 [14]: 0.001 µg/mL
IC50 [15]: 1.34 µg/mL
IC80 [15]: 18.5 µg/mL
IC50 [16]: > 50 µg/mL
IC80 [16]: > 50 µg/mL
IC50 [17]: 0.26 µg/mL
IC80 [17]: 2.06 µg/mL
IC50, titer in TZM.bl cells [18]: 0.241 µg/mL
IC80, titer in TZM.bl cells [18]: 19.7 µg/mL
IC50 [19]: < 0.001 µg/mL
IC80 [19]: < 0.001 µg/mL
IC50, titer in TZM.bl cells [20]: 0.018 µg/mL
IC80, titer in TZM.bl cells [20]: 0.065 µg/mL
IC50, titer in TZM.bl cells [21]: > 50 µg/mL
IC80, titer in TZM.bl cells [21]: > 50 µg/mL
IC50 [22]: > 50 µg/mL
IC80 [22]: > 50 µg/mL
IC50 [23]: 0.024 µg/mL
IC80 [23]: 0.082 µg/mL
IC50, titer in TZM.bl cells [24]: > 50 µg/mL
IC80, titer in TZM.bl cells [24]: > 50 µg/mL
IC50, titer in TZM.bl cells [25]: 0.272 µg/mL
IC80, titer in TZM.bl cells [25]: 2.24 µg/mL
IC50 [26]: 0.042 µg/mL
IC80 [26]: 0.234 µg/mL
IC50 [27]: 6.67 µg/mL
IC80 [27]: 25.5 µg/mL
IC50 [28]: 0.26 µg/mL
IC80 [28]: 25.5 µg/mL
IC50 [29]: 0.112 µg/mL
IC80 [29]: 1.23 µg/mL
IC50 [30]: 0.001 µg/mL
IC80 [30]: 0.005 µg/mL
IC50 [31]: 0.029 µg/mL
IC80 [31]: 0.095 µg/mL
IC50 [32]: 0.01 µg/mL
IC80 [32]: 0.029 µg/mL
IC50 [33]: 0.018 µg/mL
IC80 [33]: 0.419 µg/mL
IC50, titer in TZM.bl cells [34]: 0.005 µg/mL
IC80, titer in TZM.bl cells [34]: 0.044 µg/mL
IC50, titer in TZM.bl cells [35]: 6.63 µg/mL
IC80, titer in TZM.bl cells [35]: > 50 µg/mL
IC50 [36]: 37.8 µg/mL
IC80 [36]: > 50 µg/mL

PGT128 (antibody)
IC50 [1]: 0.026 µg/mL
IC80 [1]: 0.095 µg/mL
IC50 [2]: > 50 µg/mL
IC80 [2]: > 50 µg/mL
IC50 [3]: 13.8 µg/mL
IC80 [3]: > 50 µg/mL
IC50, titer in TZM.bl cells [4]: > 50 µg/mL
IC80, titer in TZM.bl cells [4]: > 50 µg/mL
IC50, titer in TZM.bl cells [5]: 0.003 µg/mL
IC80, titer in TZM.bl cells [5]: 0.019 µg/mL
IC50 [6]: 2.06 µg/mL
IC80 [6]: 12.6 µg/mL
IC50 [7]: > 50 µg/mL
IC80 [7]: > 50 µg/mL
IC50, titer in TZM.bl cells [8]: 0.003 µg/mL
IC80, titer in TZM.bl cells [8]: 0.023 µg/mL
IC50, titer in TZM.bl cells [9]: 0.014 µg/mL
IC80, titer in TZM.bl cells [9]: 0.033 µg/mL
IC50 [10]: 0.019 µg/mL
IC80 [10]: 0.055 µg/mL
IC50 [11]: 0.02 µg/mL
IC80 [11]: 0.076 µg/mL
IC50 [12]: 0.058 µg/mL
IC80 [12]: 0.162 µg/mL
IC50, titer in TZM.bl cells [13]: 0.062 µg/mL
IC80, titer in TZM.bl cells [13]: 0.215 µg/mL
IC50 [14]: > 50 µg/mL
IC80 [14]: > 50 µg/mL
IC50 [15]: > 50 µg/mL
IC80 [15]: > 50 µg/mL
IC50 [16]: 0.005 µg/mL
IC80 [16]: 0.014 µg/mL
IC50 [17]: 0.013 µg/mL
IC80 [17]: 0.038 µg/mL
IC50, titer in TZM.bl cells [18]: > 50 µg/mL
IC80, titer in TZM.bl cells [18]: > 50 µg/mL
IC50 [19]: 14.2 µg/mL
IC80 [19]: > 50 µg/mL
IC50, titer in TZM.bl cells [20]: > 50 µg/mL
IC80, titer in TZM.bl cells [20]: > 50 µg/mL
IC50, titer in TZM.bl cells [21]: 0.03 µg/mL
IC80, titer in TZM.bl cells [21]: 0.137 µg/mL
IC50 [22]: 0.004 µg/mL
IC80 [22]: 0.016 µg/mL
IC50 [23]: 1.08 µg/mL
IC80 [23]: 18.4 µg/mL
IC50, titer in TZM.bl cells [24]: > 50 µg/mL
IC80, titer in TZM.bl cells [24]: > 50 µg/mL
IC50, titer in TZM.bl cells [25]: 0.019 µg/mL
IC80, titer in TZM.bl cells [25]: 0.052 µg/mL
IC50 [26]: > 50 µg/mL
IC80 [26]: > 50 µg/mL
IC50 [27]: 0.514 µg/mL
IC80 [27]: > 50 µg/mL
IC50 [28]: > 50 µg/mL
IC80 [28]: > 50 µg/mL
IC50 [29]: > 50 µg/mL
IC80 [29]: > 50 µg/mL
IC50 [30]: 0.011 µg/mL
IC80 [30]: 0.034 µg/mL
IC50 [31]: 0.026 µg/mL
IC80 [31]: 0.109 µg/mL
IC50 [32]: > 50 µg/mL
IC80 [32]: > 50 µg/mL
IC50 [33]: 0.002 µg/mL
IC80 [33]: 0.01 µg/mL
IC50, titer in TZM.bl cells [34]: 0.001 µg/mL
IC80, titer in TZM.bl cells [34]: 0.007 µg/mL
IC50, titer in TZM.bl cells [35]: > 50 µg/mL
IC80, titer in TZM.bl cells [35]: > 50 µg/mL
IC50 [36]: > 50 µg/mL
IC80 [36]: > 50 µg/mL
